{"source": "paper PMC13276077", "experiment_in_all_cases": "EMSA", "key": {"[1]": {"molecular_target": "MeCP2 full-length, e2 isoform (Homo sapiens) (UniProt P51608)", "settings": "EMSA: 20 mM HEPES pH 7.5, 75 mM NaCl, 125 mM KCl, 50 uM EDTA, 2.5 mM beta-mercaptoethanol, 5% glycerol, BSA, 1.58 uM 47 bp competitor DNA (absent in free DNA …)"}, "MeCP2 MBD (Homo sapiens)": {"molecular_target": "MeCP2 MBD (Homo sapiens) (UniProt P51608)", "settings": "EMSA: 20 mM HEPES pH 7.5, 75 mM NaCl, 125 mM KCl, 50 uM EDTA, 2.5 mM beta-mercaptoethanol, 5% glycerol, BSA, 1.58 uM 47 bp competitor DNA (absent in free DNA …)"}, "[2]": {"molecular_target": "MeCP2 R133G R133G (Homo sapiens) (UniProt P51608)", "settings": "apparent, competitor DNA, EMSA: 20 mM HEPES pH 7.5, 75 mM NaCl, 125 mM KCl, 50 uM EDTA, 2.5 mM beta-mercaptoethanol, 5% glycerol, BSA, 1.58 uM 47 bp competitor DNA (absent in free DNA …)"}, "[3]": {"settings": "apparent, no competitor DNA, meCpG at -1"}}}
{"sequence": "CGGTACCTCGCGAATGCATCTAATGGAACACATTGCACAGGATGTATCCGGCTGACACGTGCCTGGAGACTAGGGAGTAATCCCCTTGGCGGTTAAAACGCGGGGGACAGAGCGTACGTGCGTTTAAGCGGTGCTAGAGCTGTCGCGCCCCAATTGAGCGGCCTCGGCACAGGGATTCTCCAGGGCGGCCGCGTATTGGATCCCGAGCC (double strand) [37-N601(mod2)-27 nucleosome unmethylated]", "values": [{"measurement": "Kd", "setting": "[1]", "result": 91.9, "unit": "nM"}]}
{"sequence": "GAGCCACAAAATCACCGACGCTCACGGGTGCCCAGTTCGCGCGCCCACCTACCGTGTGAAGTCGTCACTCGGGCTTCTAAGTACGCTTAGCGCACGGTAGAGCGCAATCCAAGGCTAACCACCGTGCATCGATGTTGAAAGAGGCCCTCCGTCCTTATTACTTCAAGTCCCTGGGGTACCCGTTTCACTGCCA (double strand) [16-N603-30 nucleosome 81 meCpA]", "values": [{"measurement": "Kd", "setting": "MeCP2 MBD (Homo sapiens); asymmetric meCpA at 81", "result": 268, "unit": "nM"}, {"measurement": "Kd", "setting": "[1]; asymmetric meCpA at 81", "result": 65.3, "unit": "nM"}]}
{"sequence": "CGGTACCTCGCGAATGCATCTAATGGAACACATTGCACAGGATGTATCCGGCTGACACGTGCCTGGAGACTAGGGAGTAATCCCCTTGGCGGTTAAAACGCGGGGGACAGAGCGTACGTGCGTTTAAGCGGTGCTAGAGCTGTCGCGCCCCAATTGAGCGGCCTCGGCACAGGGATTCTCCAGGGCGGCCGCGTATTGGATCCCGAGCC (double strand) [37-N601(mod2)-27 nucleosome -36 meCpG]", "values": [{"measurement": "Kd", "setting": "[1]; meCpG at -36", "result": 70.8, "unit": "nM"}]}
{"sequence": "CGGTACCTCGCGAATGCATCTAATGGAACACATTGCACAGGATGTATATATCTGACACGTGCCTGGAGACTAGGGAGTAATCCCCTTGGCGGTTAAAACGCGGGGGACAGAACGCCGGTGCGTTTAAGCGGTGCTAGAGCTGTCTACGACCAATTGAGCGGCCTGCGCACAGGGATTCTCCAGGGCGGCCGCGTATTGGATCCCGAGCC (double strand) [37-N601(mod)-27 nucleosome unmethylated]", "values": [{"measurement": "Kd", "setting": "[1]", "result": 82.1, "unit": "nM"}]}
{"sequence": "CGGTACCTCGCGAATGCATCTAATGGAACACATTGCACAGGATGTATCCGGCTGACACGTGCCTGGAGACTAGGGAGTAATCCCCTTGGCGGTTAAAACGCGGGGGACAGAGCGTACGTGCGTTTAAGCGGTGCTAGAGCTGTCGCGCCCCAATTGAGCGGCCTCGGCACAGGGATTCTCCAGGGCGGCCGCGTATTGGATCCCGAGCC (double strand) [37-N601(mod2)-27 nucleosome +61 meCpG]", "values": [{"measurement": "Kd", "setting": "[1]; meCpG at +61", "result": 62, "unit": "nM"}]}
{"sequence": "CAGGATGTATATATCTGACACGTGCCTGGAGACTAGGGAGTAATCCCCTTGGCGGTTAAAACGCGGGGGACAGCGCGTACGTGCGTTTAAGCGGTGCTAGAGCTGTCTACGACCAATTGAGCGGCCTCGGCACCGGGATTCTCCA (double strand) [N601 nucleosome core particle -1 meCpG]", "values": [{"measurement": "Kd", "setting": "MeCP2 MBD (Homo sapiens); [3]", "result": 50.7, "unit": "nM"}, {"measurement": "Kd", "setting": "[1]; [3]", "result": 44.2, "unit": "nM"}]}
{"sequence": "ATGGAACACATTGCACAGGATGTATATATCTGACACGTGCCTGGAGACTAGGGAGTAATCCCCTTGGCGGTTAAAACGCGGGGGACAGCGCGTACGTGCGTTTAAGCGGTGCTAGAGCTGTCTACGACCAATTGAGCGGCCTCGGCACCGGGATTCTCCAGGGCGGCCGCGTATT (double strand) [15-N601-15 nucleosome 81 meCpA]", "values": [{"measurement": "Kd", "setting": "[1]; apparent, H1.0 1-97 prebound, competitor DNA, linker meCpA 81 bp from dyad", "result": 382, "unit": "nM"}, {"measurement": "Kd", "setting": "[1]; apparent, H1.0 25-97 prebound, competitor DNA, linker meCpA 81 bp from dyad", "result": 295, "unit": "nM"}]}
{"sequence": "CGGTACCTCGCGAATGCATCTAATGGAACACATTGCACAGGATGTATATATCTGACACGTGCCTGGAGACTAGGGAGTAATCCCCTTGGCGGTTAAAACGCGGGGGACAGAACGCCGGTGCGTTTAAGCGGTGCTAGAGCTGTCTACGACCAATTGAGCGGCCTGCGCACAGGGATTCTCCAGGGCGGCCGCGTATTGGATCCCGAGCC (double strand) [37-N601(mod)-27 nucleosome -56 meCpG]", "values": [{"measurement": "Kd", "setting": "[1]; meCpG at -56", "result": 55.8, "unit": "nM"}]}
{"sequence": "ATGGAACACATTGCACAGGATGTATATATCTGACACGTGCCTGGAGACTAGGGAGTAATCCCCTTGGCGGTTAAAACGCGGGGGACAGCGCGTACGTGCGTTTAAGCGGTGCTAGAGCTGTCTACGACCAATTGAGCGGCCTCGGCACCGGGATTCTCCAGGGCGGCCGCGTATT (double strand) [15-N601-15 nucleosome -61 meCpG]", "values": [{"measurement": "Kd", "setting": "MeCP2 MBD (Homo sapiens); meCpG at -61 (GGCACCGGGATT)", "result": 809, "unit": "nM"}, {"measurement": "Kd", "setting": "[2]; meCpG at -61 (GGCACCGGGATT)", "result": 534, "unit": "nM"}, {"measurement": "Kd", "setting": "[1]; meCpG at -61 (GGCACCGGGATT)", "result": 137, "unit": "nM"}]}
{"sequence": "CGGTACCTCGCGAATGCATCTAATGGAACACATTGCACAGGATGTATATATCTGACACGTGCCTGGAGACTAGGGAGTAATCCCCTTGGCGGTTAAAACGCGGGGGACAGAACGCCGGTGCGTTTAAGCGGTGCTAGAGCTGTCTACGACCAATTGAGCGGCCTGCGCACAGGGATTCTCCAGGGCGGCCGCGTATTGGATCCCGAGCC (double strand) [37-N601(mod)-27 nucleosome -6 meCpG]", "values": [{"measurement": "Kd", "setting": "[1]; meCpG at -6", "result": 57.4, "unit": "nM"}]}
{"sequence": "ATGGAACACATTGCACAGGATGTATATATCTGACACGTGCCTGGAGACTAGGGAGTAATCCCCTTGGCGGTTAAAACGCGGGGGACAGCGCGTACGTGCGTTTAAGCGGTGCTAGAGCTGTCTACGACCAATTGAGCGGCCTCGGCACCGGGATTCTCCAGGGCGGCCGCGTATT (double strand) [15-N601-15 nucleosome -1 meCpG]", "values": [{"measurement": "Kd", "setting": "MeCP2 MBD (Homo sapiens); meCpG at -1", "result": 812, "unit": "nM"}, {"measurement": "Kd", "setting": "[2]; meCpG at -1", "result": 522, "unit": "nM"}, {"measurement": "Kd", "setting": "[1]; meCpG at -1", "result": 130, "unit": "nM"}]}
{"sequence": "GAGCCACAAAACCGGCGACGCTCACGGGTGCCCAGTTCGCGCGCCCACCTACCGTGTGAAGTCGTCACTCGGGCTTCTAAGTACGCTTAGCGCACGGTAGAGCGCAATCCAAGGCTAACCACCGTGCATCGATGTTGAAAGAGGCCCTCCGTCCTTATTACTTCAAGTCCCTGGGGTACCCGTTTCACTGCCA (double strand) [16-N603-30 +91 CG nucleosome 91 meCpG]", "values": [{"measurement": "Kd", "setting": "[1]; meCpG at 91", "result": 71.3, "unit": "nM"}]}
{"sequence": "GAGCCACAAAATCACCGACGCCCGGGGGTGCCCAGTTCGCGCGCCCACCTACCGTGTGAAGTCGTCACTCGGGCTTCTAAGTACGCTTAGCGCACGGTAGAGCGCAATCCAAGGCTAACCACCGTGCATCGATGTTGAAAGAGGCCCTCCGTCCTTATTACTTCAAGTCCCTGGGGTACCCGTTTCACTGCCA (double strand) [16-N603-30 +81 CG nucleosome 81 meCpG]", "values": [{"measurement": "Kd", "setting": "[1]; meCpG at 81", "result": 65.5, "unit": "nM"}]}
